Source: patent publication US5446130A, “Parathyroid hormone antagonists” (Mitsubishi Kasei Corporation, priority 1990, dated 1995)
Read-outs that look alike come from different tables or passages of the source. Values belong to the molecule of their own block, whether it stands above or below them. Where no end group is shown, it is not given here. The star is where a group is joined. Myristoyl = CCCCCCCCCCCCCC(=O)*

How the values were obtained:
[1] = molecular target: T1, hPTH (1-34) (human, UniProt P01270); settings: scale: ratio of IC50 to that of [Tyr34]-hPTH(3-34)-NH2
T1 peptide: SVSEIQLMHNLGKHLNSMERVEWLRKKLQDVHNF

[2] = system: output of cAMP produced by 5×10^-9 M hPTH (1-34) in cultured mouse osteoblast MC3T3-E1; experiment: Determination of PTH antagonism: inhibition of cAMP output induced by hPTH (1-34) in cultured mouse osteoblast MC3T3-E1; assay type: cell-based
Experimental: PTH antagonism of the PTHrP derivatives (I) of the present invention was determined on the basis of the output of cAMP, using cultured mouse osteoblast MC3T3-E1.
To a multiwell-culture plate of 12-well were inoculated 1×10^5 cells/well of the cultured cells, and the plate was incubated at 37° C. under 95% air-5% CO2 atmosphere for 3 days after addition of α-modified MEM containing 10% semi-fetal bovine serum as a medium. Then, the medium was exchanged with α-modified MEM containing 1% bovine serum albumin and the cultured cells were incubated for 6 hours. The medium was replaced by α-modified MEM containing various concentrations of the compound of the present invention, 5×10^-9 M hPTH (1-34), 1% bovine serum albumin and 1 mM isobutylmethylxanthin, and the mixture was incubated for 1 hour. The medium was separated from the cells, and the medium was used as a sample for assaying cAMP. The cells were shaken with 90% n-propyl alcohol to extract cAMP according to Yamaguchi et al., J. Biol. Chem., 262, 7711-7718 (1987) for preparing another sample.
Assay of cAMP was performed using a commercially available cAMP-radioimmunoassay kit. […] Compound numbers in the tables correspond to those in Table 2.

[3] = molecular target: T1, hPTH (1-34)
[4] = molecular target: T1, hPTH (1-34); experiment: cell-based or functional assay
[5] = molecular target: T1, hPTH (1-34); experiment: cell-based or functional assay

Molecule: CC[C@H](C)[C@H](NC(=O)[C@H](CC(C)C)NC(=O)[C@H](Cc1c[nH]cn1)NC(=O)[C@H](Cc1c[nH]cn1)NC(=O)[C@H](CC(C)C)NC(=O)[C@H](Cc1ccccc1)NC(=O)[C@H](Cc1ccccc1)NC(=O)[C@H](CCCNC(=N)N)NC(=O)[C@H](CCCNC(=N)N)NC(=O)[C@H](CCCNC(=N)N)NC(=O)[C@H](CC(C)C)NC(=O)[C@H](CC(=O)O)NC(=O)[C@H](CCC(N)=O)NC(=O)[C@@H](NC(=O)[C@H](CO)NC(=O)[C@H](CCCCN)NC(=O)CNC(=O)[C@H](CC(C)C)NC(=O)[C@H](C)NC(=O)[C@H](Cc1c[nH]cn1)NC(=O)[C@H](CCSC)NC(=O)[C@H](CC(C)C)NC(=O)[C@H](CCC(N)=O)NC(=O)[C@@H](NC(=O)[C@H](CCC(=O)O)NC(=O)[C@@H](N)CO)[C@@H](C)CC)[C@@H](C)CC)C(=O)N[C@@H](C)C(=O)N[C@@H](CCC(=O)O)C(=O)N[C@H](C(=O)N[C@@H](Cc1c[nH]cn1)C(=O)N[C@H](C(=O)N[C@@H](C)C(N)=O)[C@@H](C)O)[C@@H](C)CC [Compound No. 1]
IC50 Ratio ([2]; Table 3, 50% inhibition of cAMP output by 5×10^-9 M hPTH (1-34), ratio to control [Tyr34]-hPTH (3-34)-NH2 = 1): 0.003 | concentration for 50% inhibition as fraction of that of [Tyr^34 ]-hPTH (3-34)-NH2 ([2]; relative to [Tyr34]-hPTH (3-34)-NH2): below 1/300 | concentration for 50% inhibition as fraction of that of hPTHrP (3-34)-NH2 ([2]; relative to hPTHrP (3-34)-NH2): about 1/29

Molecule: FQLMHDKGKSIQDLRRRFFLHHLIAEIHTA-NH2 [Compound No. 8]
IC50 Ratio: 50% inhibition of cAMP output, MC3T3-E1 mouse osteoblasts [4]: 0.026 ratio of IC50 to that of [Tyr34]-hPTH(3-34)-NH2

Molecule: IQLMHDKGKSIQDLRRRFFLHKLIAEIHTA-NH2 [Compound No. 20]
IC50 Ratio: 50% inhibition of cAMP output, MC3T3-E1 mouse osteoblasts [5]: 1.01 ratio of IC50 to that of Compound No. 15

Molecule: IQLMHDKGKSIQDLRRRFFLRHLIAEIHTA-NH2 [Compound No. 19]
IC50 Ratio: 50% inhibition of cAMP output, MC3T3-E1 mouse osteoblasts [5]: 0.934 ratio of IC50 to that of Compound No. 15

Molecule: SEIQLMHQLGKSIQDLRRRFFLHHLIAEIHTA-NH2 [Compound No. 2]
IC50 Ratio: 50% inhibition of cAMP output, MC3T3-E1 mouse osteoblasts [4]: 0.003 ratio of IC50 to that of [Tyr34]-hPTH(3-34)-NH2

Molecule: IQLMHALGKSIQDLRRRFFLHHLIAEIHTA-NH2 [Compound No. 18]
IC50 Ratio: 50% inhibition of cAMP output, MC3T3-E1 mouse osteoblasts [5]: 1.97 ratio of IC50 to that of Compound No. 15

Molecule: LQLMHDKGKSIQDLRRRFFLHHLIAEIHTA-NH2 [Compound No. 9]
IC50 Ratio: 50% inhibition of cAMP output, MC3T3-E1 mouse osteoblasts [5]: 1.02 ratio of IC50 to that of Compound No. 15

Molecule: IQXMHDKGKSIQDLRRRFFLHHLIAEIHTA (Nle (norleucine) as third residue (EEE); C-terminal amide (Ala-NH2)) [Compound No. 14]
IC50 Ratio: 50% inhibition of cAMP output, MC3T3-E1 mouse osteoblasts [5]: 0.922 ratio of IC50 to that of Compound No. 15

Molecule: SEIQLMHALGKSIQDLRRRFFLHHLIAEIHTA-NH2 [Compound No. 1]
IC50 Ratio: 50% inhibition of cAMP output, MC3T3-E1 mouse osteoblasts [4]: 0.003 ratio of IC50 to that of [Tyr34]-hPTH(3-34)-NH2

Molecule: XLMHDKGKSIQDLRRRFFLHHLIAEIHTA (N-terminal myristoyl (Myr-Gln); C-terminal amide (Ala-NH2)) [Compound No. 10]
IC50 Ratio: 50% inhibition of cAMP output, MC3T3-E1 mouse osteoblasts [5]: 2.24 ratio of IC50 to that of Compound No. 15

Molecule: IQLMHAKGKSIQDLRRRFFLHHLIAEIHTA-NH2 [Compound No. 17]
IC50 Ratio: 50% inhibition of cAMP output, MC3T3-E1 mouse osteoblasts [5]: 1.17 ratio of IC50 to that of Compound No. 15

The next lines start with the values.

IC50 Ratio: 50% inhibition of cAMP output, MC3T3-E1 mouse osteoblasts [1]: 1
Molecule: [Tyr^34]-hPTH (3-34)-NH2 (from UniProt P01270) (peptide)

IC50 Ratio ([2]; Table 4, 50% inhibition of cAMP output by 5×10^-9 M hPTH (1-34), ratio to control Compound No. 15 = 1): 0.934
Molecule: CC[C@H](C)[C@H](NC(C)=O)C(=O)N[C@@H](CCC(N)=O)C(=O)N[C@@H](CC(C)C)C(=O)N[C@@H](CCSC)C(=O)N[C@@H](Cc1c[nH]cn1)C(=O)N[C@@H](CC(=O)O)C(=O)N[C@@H](CCCCN)C(=O)NCC(=O)N[C@@H](CCCCN)C(=O)N[C@@H](CO)C(=O)N[C@H](C(=O)N[C@@H](CCC(N)=O)C(=O)N[C@@H](CC(=O)O)C(=O)N[C@@H](CC(C)C)C(=O)N[C@@H](CCCNC(=N)N)C(=O)N[C@@H](CCCNC(=N)N)C(=O)N[C@@H](CCCNC(=N)N)C(=O)N[C@@H](Cc1ccccc1)C(=O)N[C@@H](Cc1ccccc1)C(=O)N[C@@H](CC(C)C)C(=O)N[C@@H](Cc1c[nH]cn1)C(=O)N[C@@H](Cc1c[nH]cn1)C(=O)N[C@@H](CC(C)C)C(=O)N[C@H](C(=O)N[C@@H](C)C(=O)N[C@@H](CCC(=O)O)C(=O)N[C@H](C(=O)N[C@@H](Cc1c[nH]cn1)C(=O)N[C@H](C(=O)N[C@@H](C)C(N)=O)[C@@H](C)O)[C@@H](C)CC)[C@@H](C)CC)[C@@H](C)CC [Compound No. 21]

IC50 Ratio: 50% inhibition of cAMP output, MC3T3-E1 mouse osteoblasts (ratio of IC50 to that of Compound No. 15) [3]: 3.91
Molecule: [Leu^11,D-Trp^12]-hPTHrP(7-34)-NH2 (from UniProt P12272) (peptide)

IC50 Ratio: 50% inhibition of cAMP output, MC3T3-E1 mouse osteoblasts [5]: 0.765 ratio of IC50 to that of Compound No. 15
B1: Compound No. 22 (peptide)
peptide: Myristoyl-IQLMHDKGKSIQDLRRRFFLHHLIAEIHTA-NH2
SMILES: CCCCCCCCCCCCCC(=O)N[C@H](C(=O)N[C@@H](CCC(N)=O)C(=O)N[C@@H](CC(C)C)C(=O)N[C@@H](CCSC)C(=O)N[C@@H](Cc1c[nH]cn1)C(=O)N[C@@H](CC(=O)O)C(=O)N[C@@H](CCCCN)C(=O)NCC(=O)N[C@@H](CCCCN)C(=O)N[C@@H](CO)C(=O)N[C@H](C(=O)N[C@@H](CCC(N)=O)C(=O)N[C@@H](CC(=O)O)C(=O)N[C@@H](CC(C)C)C(=O)N[C@@H](CCCNC(=N)N)C(=O)N[C@@H](CCCNC(=N)N)C(=O)N[C@@H](CCCNC(=N)N)C(=O)N[C@@H](Cc1ccccc1)C(=O)N[C@@H](Cc1ccccc1)C(=O)N[C@@H](CC(C)C)C(=O)N[C@@H](Cc1c[nH]cn1)C(=O)N[C@@H](Cc1c[nH]cn1)C(=O)N[C@@H](CC(C)C)C(=O)N[C@H](C(=O)N[C@@H](C)C(=O)N[C@@H](CCC(=O)O)C(=O)N[C@H](C(=O)N[C@@H](Cc1c[nH]cn1)C(=O)N[C@H](C(=O)N[C@@H](C)C(N)=O)[C@@H](C)O)[C@@H](C)CC)[C@@H](C)CC)[C@@H](C)CC)[C@@H](C)CC

IC50 Ratio: 50% inhibition of cAMP output, MC3T3-E1 mouse osteoblasts [5]: 1 ratio of IC50 to that of Compound No. 15 | IC50 Ratio: 50% inhibition of cAMP output, MC3T3-E1 mouse osteoblasts [4]: 0.017 ratio of IC50 to that of [Tyr34]-hPTH(3-34)-NH2
Molecule: IQLMHDKGKSIQDLRRRFFLHHLIAEIHTA-NH2 [[Ile^5, Met^8]-hPTHrP (5-34)-NH2]

IC50 Ratio: 50% inhibition of cAMP output, MC3T3-E1 mouse osteoblasts [5]: 0.934 ratio of IC50 to that of Compound No. 15
Molecule: Ac-IQLMHDKGKSIQDLRRRFFLHHLIAEIHTA-NH2 [Compound No. 21]
